Reference: paper PMC9534319 (2022)

Biological target: h219 (VH9/VK2)
Experiment: BLI

- Kd: 0.66 nM
B1: his tagged human LAIR1 recombinant protein (receptor)
chain: QEEDLPRPSISAEPGTVIPLGSHVTFVCRGPVGVQTFRLERDSRSTYNDTEDVSQASPSESEARFRIDSVREGNAGLYRCIYYKPPKWSEQSDYLELLVKESSGGPDSPDTEPGSSAGPTQRPSDNSHNEHAPASQGLKAEHLY
